Data set [1] has as its target T1, ADAR1-dsRBD3 interface mutant (monomeric) (Homo sapiens, UniProt P55265 708-801, V747A;D748Q;W768V;C773S).
T1 sequence: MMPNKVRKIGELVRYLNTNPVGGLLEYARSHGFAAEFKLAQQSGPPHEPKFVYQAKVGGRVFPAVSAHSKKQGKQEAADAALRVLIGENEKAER
Nature of the data set: ITC; N = 3.60 ± 0.36; ITC: 25 mM Na-phosphate pH 7.0, 100 mM NaCl, 2 mM 2-mercaptoethanol, 25 °C; 2.25 uM dsRNA in cell, 80 uM protein in syringe. The settings on record: protein: recombinant; tags: N-terminal His6 (uncleaved); blunt. A general note: In ITC the heat of successive injections is recorded.

The target in data set [2] is T2, ADAR1-dsRBD3 wild-type (dsRBD3-mid) (Homo sapiens, UniProt P55265 708-801).
T2 sequence: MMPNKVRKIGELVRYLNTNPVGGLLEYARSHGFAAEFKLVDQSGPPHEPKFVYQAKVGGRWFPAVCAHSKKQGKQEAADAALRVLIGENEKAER
Nature of the data set: ITC; N = 4.15 ± 0.42; source data sheet gives 123 nM; ITC: 25 mM Na-phosphate pH 7.0, 100 mM NaCl, 2 mM 2-mercaptoethanol, 25 °C; 2.25 uM dsRNA in cell, 80 uM protein in syringe. The settings on record: protein: recombinant; tags: N-terminal His6 (uncleaved); chain copies: 2; blunt.

Data set [3] has as its target T3, ADAR1-dsRBD3 (dsRBD3-short) (Homo sapiens, UniProt P55265 716-797).
T3 sequence: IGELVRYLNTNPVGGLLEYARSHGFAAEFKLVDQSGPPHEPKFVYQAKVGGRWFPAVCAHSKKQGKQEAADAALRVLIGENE
The data set can be described thus: X-ray crystallography; 2.8 A; crystals from 50 mM Na cacodylate pH 6.0, 5% PEG 4000, 30 mM CaCl2, 230 mM KCl; ITC: 25 mM Na-phosphate pH 7.0, 100 mM NaCl, 2 mM 2-mercaptoethanol, 25 °C; 2.25 uM dsRNA in cell, 80 uM protein in syringe. Particulars: protein: recombinant; tags: His6 removed by TEV (residual residues remain); chain copies: 2; self-duplex of 2 copies, 11 bp, 3' overhang 2 nt (CG) on each strand; overhangs pair to form a continuous pseudo-A-form helix; 3 strands per asymmetric unit.

B1: 24 bp dsRNA duplex (dsRNA)
RNA 1: GGGAUCAAUAUGCUAAGCGAUCCC
RNA 2: GGGAUCGCUUAGCAUAUUGAUCCC
What is called Kd is the free concentration of one partner at which half of the binding sites on the other are occupied at equilibrium, for simple one-to-one binding. Regarding B1, the dissociation constant Kd amounted to 410 ± 65 nM in data set [1] and 125 ± 25 nM in data set [2].

B2: 13-nt self-complementary RNA (dsRNA)
RNA 1: CGAAGCCUUCGCG
RNA 2: CGAAGCCUUCGCG
For the molecule B2, the binding result in data set [3] is “binds”.
